The results in this text go back to patent US20230189818A1, “RNA-BASED CONTROL OF BOTRYTIS” (priority 2021, published 2023).

Data set [1] relates to Botrytis. The experiment in a line: Open-air field trial on strawberry (Example 4.1, AUDPC of % disease severity). The class given is in vivo, Botrytis cinerea. The conditions noted are these: GS730 100 g ai/ha, FIG. 6. The method, then: RNAi compositions, each containing a dsRNA comprising a trigger sequence (GS349 or GS730) described herein were evaluated for ability to control botrytis on strawberry in open-air field trials. Non-formulated (dissolved in water) GS349 and GS730 were each tank mixed with water and the standard adjuvant Silwet L-77 0.1% v/v. GS349 was tested at concentrations of 25 grams of active ingredient per hectare (g ai/ha) and 50 g ai/ha and GS730 was tested at a concentration of 100 g ai/ha. Serenade ASO 85 g ai/ha, a standard biological fungicide, was used as a positive control. A second positive control group was treated with alternating applications of the chemical standards Teldor Plus 750 g ai/ha, Signum 600 g ai/ha, and Switch 500 g ai/ha. The trial also included an untreated group as a negative control.
Test compositions and positive controls were sprayed onto strawberry plants in 12 applications. Plants were observed beginning 14 days after the first application and disease progress was assessed by determining the percentage of surface area of fruit that was affected by the disease (% Disease Severity). Disease severity was plotted over the length of the trial observations and area under disease progress curve (AUDPC) was calculated in order to measure the cumulative effect of the various treatments across multiple assessments. Means were separated according to Fisher's LSD, alpha (p)≤0.05.

In data set [2] the test system is Botrytis cinerea isolate (B05.10). Nature of the data set: Detached leaf assay (tomato leaflets, lesion size). The class given is in vivo. The settings on record: five days post inoculation, vs untreated inoculated control. Put shortly:
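Tomato (Brandywine) detached lateral leaflets were sprayed with treatment in 0.03% Silwet L-77 24 h before inoculation. Two 10 μL drops of 1×10^5 conidia/mL in 7% grape juice were applied per leaflet, which was then incubated at 23 °C, ~75% RH, 12/12 light. Lesion diameter was measured at 5 DPI against the untreated inoculated control, ten replicates.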

In data set [3] the test system is B. cinerea. The experiment in a line: Open-air field trial on snap bean (Example 4.3, AUDPC of % disease severity). It counts as in vivo, Botrytis cinerea. The conditions noted are these: Switch 525 g ai/ha, GS349 20 and 40, GS2280 10 and 40, GS2303 10, 20 and 40, GS2297 20 g ai/ha, FIG. 9. The method, then: RNAi compositions, each containing a dsRNA comprising a trigger sequence (GS349, GS2280, GS2303, or GS2297) described herein were evaluated for ability to control botrytis on snap bean in open-air filed trials. All test samples were formulated with RO water, propylene glycol, a linear alcohol ethoxylate, a lignosulfanate, sodium citrate dihydate, a polyacrylic acid polymer, two biocide compositions, anhydrous citric acid, and an antifoam, all of which are readily commercially available. Formulation samples were tank mixed with a standard adjuvant, the non-ionic surfactant, Activator 90 0.125%v/v. Compositions were tested at concentrations of 10, g ai/ha, 20 g ai/ha, and 40 g ai/ha. Positive controls were a chemical standard, Switch 525 g ai/ha and a biological standard, Double Nickel LC 9.4 I/ha, both of which were also tank mixed with Activator 90 0.125% v/v. As above, an untreated check was used as a negative control.
Compositions were applied to snap bean plants using a small plot sprayer delivering 50 gallons of water per acre. A total of three applications were used for each sample and positive control. Disease state was evaluated beginning 8 days after the first application and ending 37 days after the third and final application. Percent Disease Severity was assessed and AUDPC was calculated in the same manner as noted in Example 4.1.

B1: GS730: dsRNA trigger targeting B. cinerea Bcsec15 (XM_024692064.1); trigger SEQ ID NO 19, RNA 31, reverse complement 43 (nucleic acid, listed as Botrytis cinerea)
sense: UCAACGCAGUCUCCAAAGCUUUGGAUGAAUUCGAUAACCCGGAUGUUAUUCUGCAAACCAAGAAUGUGAUAGCAUUGUUCAUCCAAACAAUGGAGGGUUGGGGAUAUUCAGUUGCCAUAUUAGAUGCUUAUGUGCUUAAGCUUUUCUAUAGAUAUGCUGAUUUGUUAAAACGGAAAUUCAGCACAGAUUUUCAACAGAUUGUGUCUACCGAUGAAUACAUGCCUAUGCCUGUCAAUAGCGAAGAAGACUUUGAUAAAAUCAUUCAAGUCAGUUGGUAUGUUCCGGACAGACCGAAAGAAGAAUACACAUUCCCCGGUGUAUUACCAUUCUCCCAGAUGUACCCAAUGUGCUGUAUAGAUAUCAGAAAUUUCCUGAAUCGAUUCUACUUCAUAAUGGAUGAUCAUUUUCAACAGCCAAACAUUAUUGAUGAGACACUUAAGAAGUCGAUAGAUGAGCUUCUGUCUGAGGAUAUUUGUGA
antisense: UCACAAAUAUCCUCAGACAGAAGCUCAUCUAUCGACUUCUUAAGUGUCUCAUCAAUAAUGUUUGGCUGUUGAAAAUGAUCAUCCAUUAUGAAGUAGAAUCGAUUCAGGAAAUUUCUGAUAUCUAUACAGCACAUUGGGUACAUCUGGGAGAAUGGUAAUACACCGGGGAAUGUGUAUUCUUCUUUCGGUCUGUCCGGAACAUACCAACUGACUUGAAUGAUUUUAUCAAAGUCUUCUUCGCUAUUGACAGGCAUAGGCAUGUAUUCAUCGGUAGACACAAUCUGUUGAAAAUCUGUGCUGAAUUUCCGUUUUAACAAAUCAGCAUAUCUAUAGAAAAGCUUAAGCACAUAAGCAUCUAAUAUGGCAACUGAAUAUCCCCAACCCUCCAUUGUUUGGAUGAACAAUGCUAUCACAUUCUUGGUUUGCAGAAUAACAUCCGGGUUAUCGAAUUCAUCCAAAGCUUUGGAGACUGCGUUGA
For the molecule B1, in data set [1] (GS349 25 g ai/ha, Serenade ASO 85 g ai/ha), the “Disease control compared with the biological standard, Serenade (AUDPC)” value was “not significantly different”. Also, the “Control of Botrytis vs. the untreated control (AUDPC)” value in data set [1] (non-formulated, Silwet L-77 0.1% v/v, 12 applications, GS349 25 and 50 g ai/ha) was “significant control”. Further, the “Average % Reduction in Lesion Size” value is 16.38% in data set [2] (30 ppm) and 25.11% in data set [2] (50 ppm).

B2: GS2303: dsRNA trigger targeting B. cinerea Bcded1 (XM_001550339.2); trigger SEQ ID NO 24, RNA 36, reverse complement 48 (nucleic acid, listed as Botrytis cinerea)
sense: GGGCUAUAUAAGCUUUCAUCUAGGUUUUCCAAGAAACGCAUUACGAUAGACAUGUUCUCCAAAAAUCUUACUGGUCCUGCUUUCAGCAUUUCCAUGGAUCAUGAAGUCCUCCACUAUGGAAGAUUUGCAAAAUAUUUUCGACAUUGCAUUUUGCUGCAUUUCGCAUUUCUAGAUAGAAAAAAAGUGGGAUUCAUAUUCUCGAUAUUUUCUUCGUUGUCUUUUAUUCACAAGACACAUGGCAAGGGAGGAUACCAUUUGAGAGCUUGAAUUGAAGGCUUUCCUCUUACUUUUUUUAUUUUUCACAUCAUCUACGAGUGGGCGUCUUUUACGAUCAAAUCGAUAUACGACAGUGGCACAAAAUAGAAUAGGCAUUUCUCUUCUUAAAAAAGAUUUAAGGGAAGAGUUGGUGCUUGUUCUCUAUAACGCUGAUGGCAUUCGGAAGUGCUCCUGUCCAUUCAGGCUGAGACUGAGACCCAAAAUGUUGGCAGGUACGGCAGAAAGAAGUCUGCUUCAUAUGAUUGAUGGAGGAAGAAAGAAAUAUGGAAUGCGAUGGAUGAGUAAUUACUUUAAAUGAAUAUGAAAA
antisense: UUUUCAUAUUCAUUUAAAGUAAUUACUCAUCCAUCGCAUUCCAUAUUUCUUUCUUCCUCCAUCAAUCAUAUGAAGCAGACUUCUUUCUGCCGUACCUGCCAACAUUUUGGGUCUCAGUCUCAGCCUGAAUGGACAGGAGCACUUCCGAAUGCCAUCAGCGUUAUAGAGAACAAGCACCAACUCUUCCCUUAAAUCUUUUUUAAGAAGAGAAAUGCCUAUUCUAUUUUGUGCCACUGUCGUAUAUCGAUUUGAUCGUAAAAGACGCCCACUCGUAGAUGAUGUGAAAAAUAAAAAAAGUAAGAGGAAAGCCUUCAAUUCAAGCUCUCAAAUGGUAUCCUCCCUUGCCAUGUGUCUUGUGAAUAAAAGACAACGAAGAAAAUAUCGAGAAUAUGAAUCCCACUUUUUUUCUAUCUAGAAAUGCGAAAUGCAGCAAAAUGCAAUGUCGAAAAUAUUUUGCAAAUCUUCCAUAGUGGAGGACUUCAUGAUCCAUGGAAAUGCUGAAAGCAGGACCAGUAAGAUUUUUGGAGAACAUGUCUAUCGUAAUGCGUUUCUUGGAAAACCUAGAUGAAAGCUUAUAUAGCCC
On to B2, for which the “Average % Reduction in Lesion Size” value worked out at 43.06% in data set [2] (30 ppm) and 26.55% in data set [2] (50 ppm). Further, the “Disease state compared to treatment with the chemical standard (AUDPC)” value in data set [3] is on record as “no significant difference”.

B3: GS2280: dsRNA trigger targeting B. cinerea Bcmcm4 (XM_024696090.1); trigger SEQ ID NO 21, RNA 33, reverse complement 45 (nucleic acid, listed as Botrytis cinerea)
sense: AAUGUCCUCGUCCGGUUUGUAAAUCUCCAAACUCCAUGCAGAUUGUACACAACAGGUCUGGAUUCAUGGAUAAGCAAGUUAUCAAGCUUCAAGAAACUCCAGAUUCCGUUCCUGCUGGUCAAACACCACAUUCCGUCUCGAUGUGUGCAUAUGAUGAGUUGGUGGAUCUGUGCAAAGCUGGUGACAGAGUUGAGAUUACUGGUAUCUUCAAAGCUAGUCCAGUUCGUGUCAAUCCUCGCCAAAGAACUCUCAAAAGCAUUUAUAAAACGUACAUCGACGUUUUACACAUUCAAAAGGUUGACAAGAAAAGAAUGGGAAUUGAUGCUUCGACCGUUGAGCAAGAAAUAUCCGAUCAGUUGACAGGCAACAUUGAAGAAACUAGAAAGGUUUCUGAAGAGGAGGAAGAAAAAAUCAGAGAAACCGCUGCAAGACCCGAUAUCUACGAACUUCUAUCUCGAUCCCUCGCACCUAGUAUUUUUGAGAUGGACGAUGUUAAGAAGGGUAUCUUGCUUCAAUUAUUUGGUGGAACUAACAAGUCUUUCGAAAAAGGAGGAAGUCCAAAAUACAGAGGAGAUAUCAAUAUUCUAUUGU
antisense: ACAAUAGAAUAUUGAUAUCUCCUCUGUAUUUUGGACUUCCUCCUUUUUCGAAAGACUUGUUAGUUCCACCAAAUAAUUGAAGCAAGAUACCCUUCUUAACAUCGUCCAUCUCAAAAAUACUAGGUGCGAGGGAUCGAGAUAGAAGUUCGUAGAUAUCGGGUCUUGCAGCGGUUUCUCUGAUUUUUUCUUCCUCCUCUUCAGAAACCUUUCUAGUUUCUUCAAUGUUGCCUGUCAACUGAUCGGAUAUUUCUUGCUCAACGGUCGAAGCAUCAAUUCCCAUUCUUUUCUUGUCAACCUUUUGAAUGUGUAAAACGUCGAUGUACGUUUUAUAAAUGCUUUUGAGAGUUCUUUGGCGAGGAUUGACACGAACUGGACUAGCUUUGAAGAUACCAGUAAUCUCAACUCUGUCACCAGCUUUGCACAGAUCCACCAACUCAUCAUAUGCACACAUCGAGACGGAAUGUGGUGUUUGACCAGCAGGAACGGAAUCUGGAGUUUCUUGAAGCUUGAUAACUUGCUUAUCCAUGAAUCCAGACCUGUUGUGUACAAUCUGCAUGGAGUUUGGAGAUUUACAAACCGGACGAGGACAUU
For B3, the “Average % Reduction in Lesion Size” value in data set [2] (30 ppm) is on record as 32.13%; in data set [2] (50 ppm), 24.08%. Moreover, the “Disease state compared to treatment with the chemical standard (AUDPC)” value in data set [3] is reported as “no significant difference”.
